This passage reports stoichiometry N and Kd results from publication PMC3787845.

In assay [1] the target is His6-ChpT-L48M (Caulobacter crescentus). Put plainly: SEC. Background: Size exclusion chromatography separates by hydrodynamic size, large species first.
The target in assay [2] is His6-ChpT-D60A (Caulobacter crescentus). Put plainly: SEC.
In assay [3] the target is His6-ChpT-L64D (Caulobacter crescentus). Put plainly: SEC.
In assay [4] the target is His6-ChpT-S44Y (Caulobacter crescentus). As to the kind of experiment: SEC.
Assay [5] addresses His6-ChpT (Caulobacter crescentus). Put plainly: SEC.
In assay [6] the target is His6-ChpT-D47A (Caulobacter crescentus). As to the kind of experiment: SEC.
For assay [7], the target named is His6-ChpT-S40V (Caulobacter crescentus). Put plainly: SEC.
Assay [8] deals with His6-ChpT-G45R (Caulobacter crescentus). As to the kind of experiment: SEC.
The target in assay [9] is His6-ChpT-N63R (Caulobacter crescentus). Put plainly: SEC.
In assay [10] the target is His6-ChpT-A41R (Caulobacter crescentus). Put plainly: SEC.
Assay [11] has the same target. As to the kind of experiment: SPR.

Usually stoichiometry N stands for a count of units in the complex or per binding partner. His6-ChpT-L48M (natural protein) came in with a stoichiometry N in assay [1] of 2.
Consider His6-ChpT-D60A (natural protein), for which the stoichiometry N in [2] is 2.
His6-ChpT-L64D (natural protein) had a stoichiometry N in assay [3] of 2.
In [4], His6-ChpT-S44Y (natural protein) displayed a stoichiometry N of 2.
In turn, His6-ChpT (natural protein) showed a stoichiometry N in assay [5] of 2.
In turn, His6-ChpT-D47A (natural protein) came in with a stoichiometry N in assay [6] of 2.
In assay [7], His6-ChpT-S40V (natural protein) had a stoichiometry N of 2.
On to His6-ChpT-G45R (natural protein), for which the stoichiometry N in assay [8] is 2.
In turn, His6-ChpT-N63R (natural protein) came in with a stoichiometry N in assay [9] of 2.
Molecule His6-ChpT-A41R (natural protein) returned a stoichiometry N in assay [10] of 2.

B1: CckA receiver domain (CckA-RD, amino acids 571–691) (domain or fragment)
chain: GRILFVEDEDAVRSVAARLLRARGYEVLEAADGEEALIIAEENAGTIDLLISDVIMPGIDGPTLLKKARGYLGTAPVMFISGYAEAEFSDLLEGETGVTFLPKPIDIKTLAERVKQQLQAA
By Kd is commonly meant the concentration at which binding is half-saturated. Low readings indicate tighter binding, high ones weaker binding. On to B1, for which, in assay [11], the dissociation constant Kd is 397 µM.
